No end group written: not given here.
Experiments:
[1] = molecular target: T1, PD-L1 on 786-O cells (PD-L1 overexpressing human renal cell carcinoma line) and MCF-7 cells (low PD-L1) (human, UniProt Q9NZQ7 19-290); assay: cell-based or functional assay
[2] = molecular target: T2, PD-L1 proteins (R&D systems) (UniProt Q9NZQ7 19-239, limits assumed); assay: SPR, PD-L1 immobilized on CM5 chip
T2 construct: Commercial recombinant PD-L1; It was immobilized on a CM5 chip for SPR and used in solution for the FP assay; also called immobilized PD-L1 proteins
Procedure: (§1) Surface plasma resonance (SPR). SPR analysis was done using a BIAcore™ X (Pharmacia Biosensor AB, Uppsala, Sweden). In short, PD-L1 proteins (R&D systems) were immobilized onto carboxylated dextran-coated gold film surface of sensor chip (CM5 sensor chip, GE Healthcare) through EDC/NHS chemistry. 30 μL of sample solution was injected at a flow rate of […]. Sample solution was allowed to flow into both channels (channel 1 for reference, channel 2 with PD-L1), and the final SPR sensorgrams were obtained by subtracting the […].

[3] = molecular target: T2, PD-L1 proteins (R&D systems); assay: SPR (BIAcore X), PD-L1 immobilized on CM5 chip, four concentrations (45-270 nM by the legend)
Procedure: as §1

[4] = molecular target: T2, PD-L1 proteins (R&D systems); assay: fluorescence polarization, fβH2_mt titrated with PD-L1 in PBS; the concentration varied is that of PD-L1
Procedure: Fluorescence polarization (FP) assay. FP assay in PBS was used the PD-L1 binding and competition assays (λex=480 nm; λem=535 nm). Fluorescence anisotropy measurements were performed at room temperature, in a 384-well plate, and using an Infinite® M1000 Pro microplate reader (Tecan). A fβH2_mt/PD-L1 complex was used for the FP competition assay after 30 min incubation time and titrated with the competitors.

[5] = molecular target: T2, PD-L1 proteins (R&D systems); assay: SPR (BIAcore X), PD-L1 immobilized on CM5 chip, four concentrations (17-42 µM by the legend)
Procedure: as §1

[6] = molecular target: T1, PD-L1 on 786-O cells (PD-L1 …); assay: fluorescence microscopy (rhodamine), cells treated for 1 h

T2 sequence (Q9NZQ7 19-239 limits assumed): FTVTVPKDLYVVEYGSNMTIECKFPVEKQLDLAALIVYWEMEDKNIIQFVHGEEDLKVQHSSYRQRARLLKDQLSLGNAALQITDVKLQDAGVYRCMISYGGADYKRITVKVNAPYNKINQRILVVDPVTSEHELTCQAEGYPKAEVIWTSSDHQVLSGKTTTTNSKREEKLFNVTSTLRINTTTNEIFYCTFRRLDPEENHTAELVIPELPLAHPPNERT
T1 sequence (Q9NZQ7 19-290): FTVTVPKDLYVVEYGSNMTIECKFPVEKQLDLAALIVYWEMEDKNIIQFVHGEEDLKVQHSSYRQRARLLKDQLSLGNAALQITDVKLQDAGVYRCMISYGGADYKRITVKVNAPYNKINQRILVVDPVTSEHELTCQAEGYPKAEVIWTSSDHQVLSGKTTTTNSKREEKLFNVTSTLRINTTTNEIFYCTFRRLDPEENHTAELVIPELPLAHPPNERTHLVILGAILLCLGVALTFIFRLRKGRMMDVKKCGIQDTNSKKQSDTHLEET

HVVWHRESPSGQTDTKAA-NH2 (other, not fully specified, also called G7-βH2_mt conjugates; DPC) [G7-βH2_mt (βH2_mt peptides conjugated to 90% acetylated G7 PAMAM dendrimer)] was tested, and the “IL-2 secretion from Jurkat T cells co-cultured with 786-O cells, compared with the non-treated cancer cells” value [1] was 1.52 fold, the “fold decrease of the dissociation rate constant (kd) compared to the free peptide” value [2] was about 180 times and the Kd [3] was 2.75 nM. The koff [3] was 0.000693 s⁻¹ and the kon [3] was 252000 M⁻¹ s⁻¹.

B1: fluorescein-conjugated βH2_mt (fβH2_mt) peptide (peptide)
peptide: HVVWHRESPSGQTDTKAA-NH2
modifications: also: fluorescein-conjugated, position not given here
notes: Tracer of the fluorescence polarization assay
With B1 the “EC50 (read off the curve)” value [4] was about 0.3 µM.

B2: free βH2_mt peptide (peptide)
peptide: HVVWHRESPSGQTDTKAA-NH2
notes: also called H2_mt peptides; free peptides
For B2, the Kd [5] was 119 µM and the koff [5] was 0.127 s⁻¹.

B3: pL1TZ (Trp-Zip βH2 mutant peptide) (peptide)
peptide: HKVWHWESPSGQWDTWAA-NH2
notes: Free tryptophan-zipper peptide; also called pLiTZ
B3: binds [6].
